# In IntAct's records for PubMed 22752157:
# B1: Kinase suppressor of Ras 1 (Mus musculus), Q61097 (parent)
# chain: MDRAALRAAAMGEKKEGGGGGAAADGGAGAAVSRALQQCGQLQKLIDISIGSLRGLRTKCSVSNDLTQQEIRTLEAKLVKYICKQQQSKLSVTPSDRTAELNSYPRFSDWLYIFNVRPEVVQEIPQELTLDALLEMDEAKAKEMLRRWGASTEECSRLQQALTCLRKVTGLGGEHKMDSGWSSTDARDSSLGPPMDMLSSLGRAGASTQGPRSISVSALPASDSPVPGLSEGLSDSCIPLHTSGRLTPRALHSFITPPTTPQLRRHAKLKPPRTPPPPSRKVFQLLPSFPTLTRSKSHESQLGNRIDDVTPMKFELPHGSPQLVRRDIGLSVTHRFSTKSWLSQVCNVCQKSMIFGVKCKHCRLKCHNKCTKEAPACRITFLPLARLRRTESVPSDINNPVDRAAEPHFGTLPKALTKKEHPPAMNLDSSSNPSSTTSSTPSSPAPFLTSSNPSSATTPPNPSPGQRDSRFSFPDISACSQAAPLSSTADSTRLDDQPKTDVLGVHEAEAEEPEAGKSEAEDDEEDEVDDLPSSRRPWRGPISRKASQTSVYLQEWDIPFEQVELGEPIGQGRWGRVHRGRWHGEVAIRLLEMDGHNQDHLKLFKKEVMNYRQTRHENVVLFMGACMNPPHLAIITSFCKGRTLHSFVRDPKTSLDINKTRQIAQEIIKGMGYLHAKGIVHKDLKSKNVFYDNGKVVITDFGLFGISGVVREERRENQLKLSHDWLCYLAPEIVREMIPGRDEDQLPFSKAADVYAFGTVWYELQARDWPFKHQPAEALIWQIGSGEGVRRVLASVSLGKEVGEILSACWAFDLQERPSFSLLMDMLERLPKLNRRLSHPGHFWKSADINSSKVMPRFERFGLGTLESGNPKM
# Variants of: B1
# Settings: with VRK2, Q86Y07-1
# VRK2, Q86Y07-1, sequence (Q86Y07 whole entry): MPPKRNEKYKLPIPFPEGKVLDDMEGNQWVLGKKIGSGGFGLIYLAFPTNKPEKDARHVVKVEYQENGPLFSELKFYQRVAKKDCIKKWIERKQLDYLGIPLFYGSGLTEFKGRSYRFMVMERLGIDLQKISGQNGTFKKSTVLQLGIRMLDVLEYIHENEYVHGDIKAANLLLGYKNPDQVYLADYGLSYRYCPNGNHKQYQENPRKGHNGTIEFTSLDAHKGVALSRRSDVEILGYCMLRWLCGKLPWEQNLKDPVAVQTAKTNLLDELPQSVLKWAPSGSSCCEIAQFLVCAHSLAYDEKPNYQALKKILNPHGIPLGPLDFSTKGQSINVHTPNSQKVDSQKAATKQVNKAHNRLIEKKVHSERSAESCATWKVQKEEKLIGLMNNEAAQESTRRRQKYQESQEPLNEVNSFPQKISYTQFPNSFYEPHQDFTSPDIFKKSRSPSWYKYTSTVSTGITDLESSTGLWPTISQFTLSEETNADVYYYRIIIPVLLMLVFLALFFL
row,effect of a mutation on the interaction,Variant
1,decreasing interaction,C809Y
